Measured values published in article PMC11969024 (2025).

B1: peptide HD2 (from tick evasin EVA4) / CCL18 (biotinylated, synthetic) (parent complex)
chain 1: EEDDYTAYAPLTCYFT
chain 2: AQVGTNKELCCLVYTSWQIPQKFIVDYSETSPQCPKPGVILLTKRGRQICADPNKKWVQKYISDLKLNA

Variants of: B1

In order of rising enrichment:
1. chain 1 Y8N  -8.33 log2 (difference from the parental peptide)
2. chain 1 P10A  -7.91 log2 (difference from the parental peptide)
3. chain 1 A9Y  -7.05 log2 (difference from the parental peptide)
4. chain 1 P10Y  -6.76 log2 (difference from the parental peptide)
5. chain 1 Y14K  -6.36 log2 (difference from the parental peptide)
6. chain 1 C13W  -6.26 log2 (difference from the parental peptide)
7. chain 1 Y8L  -6.1 log2 (difference from the parental peptide)
8. chain 1 A9P  -6 log2 (difference from the parental peptide)
9. chain 1 P10W  -5.72 log2 (difference from the parental peptide)
10. chain 1 C13F  -5.66 log2 (difference from the parental peptide)
11. chain 1 P10Q  -5.59 log2 (difference from the parental peptide)
12. chain 1 Y14D  -5.4 log2 (difference from the parental peptide)
13. chain 1 Y14N  -4.78 log2 (difference from the parental peptide)
14. chain 1 T12K  -4.78 log2 (difference from the parental peptide)
15. chain 1 C13M  -4.59 log2 (difference from the parental peptide)
16. chain 1 A9H  -4.5 log2 (difference from the parental peptide)
17. chain 1 F15D  -4.04 log2 (difference from the parental peptide)
18. chain 1 D3K  -3.97 log2 (difference from the parental peptide)
19. chain 1 A9T  -3.35 log2 (difference from the parental peptide)
20. chain 1 L11E  -3.32 log2 (difference from the parental peptide)
21. chain 1 Y14Q  -3.29 log2 (difference from the parental peptide)
22. chain 1 F15N  -2.68 log2 (difference from the parental peptide)
23. chain 1 F15E  -2.62 log2 (difference from the parental peptide)
24. chain 1 E2T  -2.6 log2 (difference from the parental peptide)
25. chain 1 E2H  -2.48 log2 (difference from the parental peptide)
26. chain 1 D4F  -2.31 log2 (difference from the parental peptide)
27. chain 1 T6P  -2.2 log2 (difference from the parental peptide)
28. chain 1 E1W  -2.19 log2 (difference from the parental peptide)
29. chain 1 D3T  -2 log2 (difference from the parental peptide)
30. chain 1 D4N  -1.99 log2 (difference from the parental peptide)
31. chain 1 E2M  -1.79 log2 (difference from the parental peptide)
32. chain 1 D4A  -1.65 log2 (difference from the parental peptide)
33. chain 1 E2A  -1.63 log2 (difference from the parental peptide)
34. chain 1 D3F  -1.57 log2 (difference from the parental peptide)
35. chain 1 D3S  -1.57 log2 (difference from the parental peptide)
36. chain 1 D4W  -1.54 log2 (difference from the parental peptide)
37. chain 1 A9S  -1.48 log2 (difference from the parental peptide)
38. chain 1 E2Q  -1.4 log2 (difference from the parental peptide)
39. chain 1 Y5E  -1.36 log2 (difference from the parental peptide)
40. chain 1 D4Y  -1.35 log2 (difference from the parental peptide)
41. chain 1 E2W  -1.25 log2 (difference from the parental peptide)
42. chain 1 A7V  -1.12 log2 (difference from the parental peptide)
43. chain 1 Y14T  -1.1 log2 (difference from the parental peptide)
44. chain 1 F15S  -0.989 log2 (difference from the parental peptide)
45. chain 1 F15K  -0.831 log2 (difference from the parental peptide)
46. chain 1 E1S  -0.81 log2 (difference from the parental peptide)
47. chain 1 A7H  -0.736 log2 (difference from the parental peptide)
48. chain 1 T16W  -0.639 log2 (difference from the parental peptide)
49. chain 1 T16Y  -0.525 log2 (difference from the parental peptide)
50. chain 1 T6Y  -0.339 log2 (difference from the parental peptide)
51. chain 1 F15W  -0.236 log2 (difference from the parental peptide)
52. chain 1 D4E  -0.211 log2 (difference from the parental peptide)
53. chain 1 T6K  -0.184 log2 (difference from the parental peptide)
54. chain 1 A9E  -0.109 log2 (difference from the parental peptide)
55. chain 1 T16V  0.0426 log2 (difference from the parental peptide)
56. chain 1 F15M  0.0729 log2 (difference from the parental peptide)
57. chain 1 T6H  0.0995 log2 (difference from the parental peptide)
58. chain 1 T6M  0.172 log2 (difference from the parental peptide)
59. chain 1 Y8W  0.189 log2 (difference from the parental peptide)
60. chain 1 F15H  0.242 log2 (difference from the parental peptide)
61. chain 1 F15T  0.316 log2 (difference from the parental peptide)
62. chain 1 A7S  0.379 log2 (difference from the parental peptide)
63. chain 1 T12M  0.511 log2 (difference from the parental peptide)
64. chain 1 A7P  0.82 log2 (difference from the parental peptide)
65. chain 1 T16S  0.936 log2 (difference from the parental peptide)
66. chain 1 F15V  1.03 log2 (difference from the parental peptide)
67. chain 1 T16E  1.13 log2 (difference from the parental peptide)
68. chain 1 A7R  1.21 log2 (difference from the parental peptide)
69. chain 1 Y5W  1.32 log2 (difference from the parental peptide)
70. chain 1 T6N  1.41 log2 (difference from the parental peptide)
71. chain 1 A7K  1.7 log2 (difference from the parental peptide)
72. chain 1 T16P  1.74 log2 (difference from the parental peptide)
73. chain 1 T12P  1.92 log2 (difference from the parental peptide)
74. chain 1 A7E  2.03 log2 (difference from the parental peptide)
75. chain 1 T6G  2.9 log2 (difference from the parental peptide)
